Test results reported in patent publication US20150174203A1 (ICAHN SCHOOL OF MEDICINE AT MOUNT SINAI, published 2015).
Each block holds one binder with its values, some of them ahead of it.

B1: human Angptl-2 with FLAG tag at the C-terminus, mammalian-expressed (ligand, not shown: small tags and cut ends)
chain: QEDGFEGTEEGSPREFIYLNRYKRAGESQDKCTYTFIVPQQRVTGAICVNSKEPEVLLENRVHKQELELLNNELLKQKRQIETLQQLVEVDGGIVSEVKLLRKESRNMNSRVTQLYMQLLHEIIRKRDNALELSQLENRILNQTADMLQLASKYKDLEHKYQHLATLAHNQSEIIAQLEEHCQRVPSARPVPQPPPAAPPRVYQPPTYNRIINQISTNEIQSDQNLKVLPPPLPTMPTLTSLPSSTDKPSGPWRDCLQALEDGHDTSSIYLVKPENTNRLMQVWCDQRHDPGGWTVIQRRLDGSVNFFRNWETYKQGFGNIDGEYWLGLENIYWLTNQGNYKLLVTMEDWSGRKVFAEYASFRLEPESEYYKLRLGRYHGNAGDSFTWHNGKQFTTLDRDHDVYTGNCAHYQKGGWWYNACAHSNLNGVWYRGGHYRSRYQDGVYWAEFRGGSYSLKKVVMMIRPNPNTFH
notes: also called Angptl-2-FLAG; A2-Flag (mammalian)
B5: LILRA2 (receptor, UniProt Q8N149 24-483, looked up)
chain: GHLPKPTLWAEPGSVIIQGSPVTLRCQGSLQAEEYHLYRENKSASWVRRIQEPGKNGQFPIPSITWEHAGRYHCQYYSHNHSSEYSDPLELVVTGAYSKPTLSALPSPVVTSGGNVTLQCVSQVAFDGFILCKEGEDEHPQRLNSHSHARGWSWAIFSVGPVSPSRRWSYRCYAYDSNSPYVWSLPSDLLELLVPGVSKKPSLSVQPGPMVAPGESLTLQCVSDVGYDRFVLYKEGERDFLQRPGWQPQAGLSQANFTLGPVSPSHGGQYRCYSAHNLSSEWSAPSDPLDILITGQFYDRPSLSVQPVPTVAPGKNVTLLCQSRGQFHTFLLTKEGAGHPPLHLRSEHQAQQNQAEFRMGPVTSAHVGTYRCYSSLSSNPYLLSLPSDPLELVVSEAAETLSPSQNKTDSTTTSLGQHPQDYTVENLIRMGVAGLVLVVLGILLFEAQHSQRSLQDAAGR
notes: whole, on cells

Tests used:
LILRA1 = target: T1, LILRA1 (UniProt O75019 17-489, limits assumed); assay: flow cytometry on transfected 293T cells
T1 construct: whole, on cells
Description: (§1) Plasmids and proteins. […] Angptl-2-FLAG was purified using M2 resin. Purified GST-Angptl-5 was purchased from Abnova. Bacterially-expressed Flag-Angptl-2 and Angptl-2-Flag were constructed in pET-26b(+) vector, and GST-Angptls-FLAG in pGEX vector, and expressed and purified from bacteria. […] Anti-LILRB2-PE was used as indicated. The cells were analyzed using either a FACSCalibur or FACSAria instrument (Becton Dickinson).

LILRA4 = target: T2, LILRA4 (UniProt P59901 24-499, limits assumed); assay: flow cytometry on transfected 293T cells
T2 construct: whole, on cells
Description: as §1

LILRB1 = target: T3, LILRB1 (human, UniProt Q8NHL6 24-650); assay: flow cytometry on transfected 293T cells
T3 construct: also called leukocyte immunoglobulin-like receptor B1
Description: as §1

[1] = target: T4, human Angptl-7 with FLAG tag at the C-terminus (human, UniProt O43827 27-346); assay: flow cytometry, 293T cells transfected with mouse LAIR1, anti-FLAG-APC against anti-LAIR1-PE; left gate of the same panel 56; Control panel 14 (left) and 15 (right)
T4 construct: not shown: FLAG tag at the C-terminus
T4 sequence: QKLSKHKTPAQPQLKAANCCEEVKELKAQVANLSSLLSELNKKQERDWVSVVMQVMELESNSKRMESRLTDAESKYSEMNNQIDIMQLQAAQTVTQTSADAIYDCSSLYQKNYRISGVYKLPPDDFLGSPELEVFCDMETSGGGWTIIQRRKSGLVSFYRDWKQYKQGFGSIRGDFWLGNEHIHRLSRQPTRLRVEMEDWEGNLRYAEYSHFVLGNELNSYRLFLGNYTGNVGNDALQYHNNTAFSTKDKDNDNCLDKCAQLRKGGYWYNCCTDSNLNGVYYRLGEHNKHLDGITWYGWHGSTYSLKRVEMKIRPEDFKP
Description: as §1

[2] = target: T5, paired immunoglobulin-like receptor B (PirB) (mouse, UniProt P97484 25-841); assay: flow cytometry on PirB-transfected 293T cells
T5 construct: whole, on cells
T5 sequence (looked up): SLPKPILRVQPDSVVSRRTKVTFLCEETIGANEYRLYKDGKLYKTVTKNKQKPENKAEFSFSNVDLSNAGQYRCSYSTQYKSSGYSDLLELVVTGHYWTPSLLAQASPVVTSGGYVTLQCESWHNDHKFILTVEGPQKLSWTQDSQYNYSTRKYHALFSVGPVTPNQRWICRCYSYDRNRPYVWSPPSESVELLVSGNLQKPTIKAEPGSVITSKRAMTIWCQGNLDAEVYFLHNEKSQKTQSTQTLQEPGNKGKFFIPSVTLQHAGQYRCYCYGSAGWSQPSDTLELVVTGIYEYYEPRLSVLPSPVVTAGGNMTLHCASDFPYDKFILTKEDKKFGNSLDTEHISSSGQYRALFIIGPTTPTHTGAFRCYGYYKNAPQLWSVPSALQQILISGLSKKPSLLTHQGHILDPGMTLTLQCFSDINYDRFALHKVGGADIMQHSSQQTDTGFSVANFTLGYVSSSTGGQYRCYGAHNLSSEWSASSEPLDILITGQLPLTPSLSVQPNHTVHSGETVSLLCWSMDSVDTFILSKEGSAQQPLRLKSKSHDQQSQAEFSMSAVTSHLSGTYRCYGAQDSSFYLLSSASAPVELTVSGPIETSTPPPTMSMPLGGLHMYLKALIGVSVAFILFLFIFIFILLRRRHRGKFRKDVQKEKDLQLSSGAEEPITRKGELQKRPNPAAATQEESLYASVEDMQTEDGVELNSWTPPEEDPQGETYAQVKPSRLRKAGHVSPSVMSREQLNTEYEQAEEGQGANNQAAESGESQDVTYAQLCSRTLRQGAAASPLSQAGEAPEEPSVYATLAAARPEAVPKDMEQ
Description: as §1

human LILRB2 = target: T6, human LILRB2 (human, UniProt Q8N423 22-597); assay: flow cytometry on human cord blood LILRB2+ cells
T6 construct: also called leukocyte immunoglobulin-like receptor B2
Description: as §1

[3] = target: B1; assay: flow cytometry on transfected 293T cells
Description: as §1

[4] = target: T5, paired immunoglobulin-like receptor B …; assay: flow cytometry, PirB-transfected 293T cells, GST-Angptl-5-FLAG according to the legend, Angptl binding against PirB staining; left gate of the same panel 46; Control panel 123 (left) and 183 (right)
Description: as §1

LILRA2 = target: B5; assay: flow cytometry on transfected 293T cells
Description: as §1

LILRB3 = target: T7, LILRB3 (human, UniProt O75022 24-631); assay: flow cytometry on transfected 293T cells
T7 construct: also called leukocyte immunoglobulin-like receptor B3
Description: as §1

LILRB5 = target: T8, LILRB5 (human, UniProt O75023 24-590); assay: flow cytometry on transfected 293T cells
T8 construct: also called leukocyte immunoglobulin-like receptor B5
Description: as §1

T1 sequence (O75019 17-489 limits assumed): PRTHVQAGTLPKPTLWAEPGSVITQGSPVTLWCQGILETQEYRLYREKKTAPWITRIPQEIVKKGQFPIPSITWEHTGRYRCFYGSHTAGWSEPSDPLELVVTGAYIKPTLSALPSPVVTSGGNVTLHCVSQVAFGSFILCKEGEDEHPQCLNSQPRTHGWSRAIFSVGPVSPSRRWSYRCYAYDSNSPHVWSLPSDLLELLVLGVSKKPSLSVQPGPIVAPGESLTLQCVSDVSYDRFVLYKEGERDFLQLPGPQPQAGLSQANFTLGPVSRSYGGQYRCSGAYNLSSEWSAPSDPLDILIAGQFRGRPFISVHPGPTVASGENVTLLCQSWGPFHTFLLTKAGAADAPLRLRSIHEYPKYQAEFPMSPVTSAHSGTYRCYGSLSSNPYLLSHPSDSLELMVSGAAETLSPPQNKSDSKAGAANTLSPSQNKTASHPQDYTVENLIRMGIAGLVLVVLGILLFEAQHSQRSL
T3 sequence (Q8NHL6 other isoform, or with tags, fused parts or gaps limits assumed): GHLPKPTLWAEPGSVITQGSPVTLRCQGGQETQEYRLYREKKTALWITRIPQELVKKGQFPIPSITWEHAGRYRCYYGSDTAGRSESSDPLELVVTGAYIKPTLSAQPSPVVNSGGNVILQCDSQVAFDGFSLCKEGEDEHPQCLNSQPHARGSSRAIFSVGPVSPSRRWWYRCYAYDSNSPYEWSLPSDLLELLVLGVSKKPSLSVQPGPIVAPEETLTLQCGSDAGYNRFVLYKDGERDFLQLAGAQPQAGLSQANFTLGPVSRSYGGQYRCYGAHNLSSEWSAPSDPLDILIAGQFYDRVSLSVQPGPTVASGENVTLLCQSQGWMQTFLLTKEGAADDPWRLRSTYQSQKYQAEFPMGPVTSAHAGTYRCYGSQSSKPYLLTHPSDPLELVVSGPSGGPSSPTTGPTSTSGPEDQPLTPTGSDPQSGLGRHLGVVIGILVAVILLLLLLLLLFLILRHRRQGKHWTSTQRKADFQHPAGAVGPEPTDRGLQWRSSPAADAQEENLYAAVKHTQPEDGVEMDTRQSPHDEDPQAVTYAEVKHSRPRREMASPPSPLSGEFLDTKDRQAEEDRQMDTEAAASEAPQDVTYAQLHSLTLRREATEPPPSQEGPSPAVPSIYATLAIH
T2 sequence (P59901 24-499 limits assumed): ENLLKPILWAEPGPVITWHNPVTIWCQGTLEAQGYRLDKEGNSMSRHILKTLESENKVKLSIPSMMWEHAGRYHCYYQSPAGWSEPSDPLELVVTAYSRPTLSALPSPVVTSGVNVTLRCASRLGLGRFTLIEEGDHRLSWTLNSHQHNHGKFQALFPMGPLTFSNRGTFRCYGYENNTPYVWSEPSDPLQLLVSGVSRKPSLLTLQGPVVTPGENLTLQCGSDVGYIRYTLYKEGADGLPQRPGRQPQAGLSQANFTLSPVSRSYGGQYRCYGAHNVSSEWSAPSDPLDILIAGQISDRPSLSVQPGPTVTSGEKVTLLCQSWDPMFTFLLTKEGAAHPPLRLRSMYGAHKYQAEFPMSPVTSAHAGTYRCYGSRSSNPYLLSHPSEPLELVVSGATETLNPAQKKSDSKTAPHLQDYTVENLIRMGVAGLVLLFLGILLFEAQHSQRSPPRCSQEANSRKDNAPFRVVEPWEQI
T7 sequence (O75022 other isoform, or with tags, fused parts or gaps limits assumed): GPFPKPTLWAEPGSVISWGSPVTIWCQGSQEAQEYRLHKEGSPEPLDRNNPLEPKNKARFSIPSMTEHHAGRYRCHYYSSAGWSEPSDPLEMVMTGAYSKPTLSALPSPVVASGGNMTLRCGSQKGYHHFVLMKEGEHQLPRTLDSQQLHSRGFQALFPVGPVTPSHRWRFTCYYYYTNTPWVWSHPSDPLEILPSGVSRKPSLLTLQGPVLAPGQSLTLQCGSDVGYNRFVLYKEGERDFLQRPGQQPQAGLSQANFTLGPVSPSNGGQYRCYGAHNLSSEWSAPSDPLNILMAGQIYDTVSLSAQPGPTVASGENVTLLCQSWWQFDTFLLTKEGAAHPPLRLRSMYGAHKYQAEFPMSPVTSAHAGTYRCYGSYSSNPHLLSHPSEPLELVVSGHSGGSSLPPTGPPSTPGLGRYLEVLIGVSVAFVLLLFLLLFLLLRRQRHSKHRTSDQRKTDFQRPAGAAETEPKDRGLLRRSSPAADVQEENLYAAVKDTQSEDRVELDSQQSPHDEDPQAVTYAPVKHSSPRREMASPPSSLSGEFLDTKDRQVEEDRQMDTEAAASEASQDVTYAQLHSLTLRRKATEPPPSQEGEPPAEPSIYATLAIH
T6 sequence (Q8N423 22-597 D161E/M235V limits assumed): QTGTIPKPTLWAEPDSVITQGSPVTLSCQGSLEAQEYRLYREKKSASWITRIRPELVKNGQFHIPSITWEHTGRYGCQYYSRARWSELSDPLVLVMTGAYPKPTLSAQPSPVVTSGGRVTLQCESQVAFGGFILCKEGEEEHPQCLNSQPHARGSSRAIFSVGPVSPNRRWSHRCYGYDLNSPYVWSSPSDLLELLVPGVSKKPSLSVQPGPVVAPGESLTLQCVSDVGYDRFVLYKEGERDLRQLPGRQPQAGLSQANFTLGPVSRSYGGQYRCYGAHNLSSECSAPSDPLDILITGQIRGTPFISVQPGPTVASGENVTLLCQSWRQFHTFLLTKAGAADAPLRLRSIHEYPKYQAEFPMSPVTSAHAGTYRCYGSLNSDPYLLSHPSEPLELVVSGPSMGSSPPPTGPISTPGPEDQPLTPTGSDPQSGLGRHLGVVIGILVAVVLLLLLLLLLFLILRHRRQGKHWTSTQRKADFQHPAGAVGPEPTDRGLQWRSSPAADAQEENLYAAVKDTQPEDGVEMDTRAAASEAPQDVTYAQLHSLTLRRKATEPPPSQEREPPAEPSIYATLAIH
T8 sequence (O75023 other isoform, or with tags, fused parts or gaps limits assumed): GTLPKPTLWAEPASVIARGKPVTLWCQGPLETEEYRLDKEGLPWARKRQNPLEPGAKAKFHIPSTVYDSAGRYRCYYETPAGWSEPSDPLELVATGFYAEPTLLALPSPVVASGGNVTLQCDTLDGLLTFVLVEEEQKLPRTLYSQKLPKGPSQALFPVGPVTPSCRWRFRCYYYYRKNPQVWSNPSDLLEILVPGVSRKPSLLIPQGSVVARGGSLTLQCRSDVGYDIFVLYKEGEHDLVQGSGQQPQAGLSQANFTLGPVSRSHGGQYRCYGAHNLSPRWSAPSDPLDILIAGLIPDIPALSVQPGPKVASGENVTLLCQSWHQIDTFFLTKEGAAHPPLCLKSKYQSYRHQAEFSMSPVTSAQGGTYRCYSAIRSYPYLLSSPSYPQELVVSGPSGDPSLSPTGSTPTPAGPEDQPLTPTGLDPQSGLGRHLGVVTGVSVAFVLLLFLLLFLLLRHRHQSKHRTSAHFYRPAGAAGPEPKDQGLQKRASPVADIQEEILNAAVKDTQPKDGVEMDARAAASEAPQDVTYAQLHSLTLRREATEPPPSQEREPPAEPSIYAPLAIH

Binder: B1
binding result (LILRA1): no binding
binding result (LILRA4): no binding
binding result (LILRB1): no binding

Binder: B5
binding result [3]: no binding

B6: GST-Angptl-5-FLAG, in house, bacterially expressed (ligand)
chain: NCVHHSTDSSVVNIVEDGSNAKDESKSNDTVCKEDCEESCDVKTKITREEKHFMCRNLQNSIVSYTRSTKKLLRNMMDEQQASLDYLSNQVNELMNRVLLLTTEVFRKQLDPFPHRPVQSHGLDCTDIKDTIGSVTKTPSGLYIIHPEGSSYPFEVMCDMDYRGGGWTVIQKRIDGIIDFQRLWCDYLDGFGDLLGEFWLGLKKIFYIVNQKNTSFMLYVALESEDDTLAYASYDNFWLEDETRFFKMHLGRYSGNAGDAFRGLKKEDNQNAMPFSTSDVDNDGCRPACLVNGQSVKSCSHLHNKTGWWFNECGLANLNGIHHFSGKLLATGIQWGTWTKNNSPVKIKSVSMKIRRMYNPYFK
notes: also called GST-A5 (in house, bacterial); GST-A5-FLAG; not shown: glutathione S-transferase (GST) tag at the N-terminus (pGEX vector); FLAG tag at the C-terminus
binding result [4]: binds

More lines, now with the values ahead:

binding result [1]: binds
B2: mouse LAIR1 (receptor, UniProt Q8BG84 22-263, looked up)
chain: QEGSLPDITIFPNSSLMISQGTFVTVVCSYSDKHDLYNMVRLEKDGSTFMEKSTEPYKTEDEFEIGPVNETITGHYSCIYSKGITWSERSKTLELKVIKENVIQTPAPGPTSDTSWLKTYSIYIFTVVSVIFLLCLSALLFCFLRHRQKKQGLPNNKRQQQRPEERLNLATNGLEMTPDIVADDRLPEDRWTETWTPVAGDLQEVTYIQLDHHSLTQRAVGAVTSQSTDMAESSTYAAIIRH
notes: whole, on cells

binding result [2]: binds
B3: human Angptl-3 with FLAG tag at the C-terminus (ligand)
chain: DQDNSSFDSLSPEPKSRFAMLDDVKILANGLLQLGHGLKDFVHKTKGQINDIFQKLNIFDQSFYDLSLQTSEIKEEEKELRRTTYKLQVKNEEVKNMSLELNSKLESLLEEKILLQQKVKYLEEQLTNLIQNQPETPEHPEVTSLKTFVEKQDNSIKDLLQTVEDQYKQLNQQHSQIKEIENQLRRTSIQEPTEISLSSKPRAPRTTPFLQLNEIRNVKHDGIPAECTTIYNRGEHTSGMYAIRPSNSQVFHVYCDVISGSPWTLIQHRIDGSQNFNETWENYKYGFGRLDGEFWLGLEKIYSIVKQSNYVLRIELEDWKDNKHYIEYSFYLGNHETNYTLHLVAITGNVPNAIPENKDLVFSTWDHKAKGHFNCPEGYSGGWWWHDECGENNLNGKYNKPRAKSKPERRRGLSWKSQNGRLYSIKSTKMLIHPTDSESFE
notes: not shown: FLAG tag at the C-terminus

binding result (human LILRB2): binds
B4: GST-Angptl-3 (ligand)
chain: SRIDQDNSSFDSLSPEPKSRFAMLDDVKILANGLLQLGHGLKDFVHKTKGQINDIFQKLNIFDQSFYDLSLQTSEIKEEEKELRRTTYKLQVKNEEVKNMSLELNSKLESLLEEKILLQQKVKYLEEQLTNLIQNQPETPEHPEVTSLKTFVEKQDNSIKDLLQTVEDQYKQLNQQHSQIKEIENQLRRTSIQEPTEISLSSKPRAPRTTPFLQLNEIRNVKHDGIPAECTTIYNRGEHTSGMYAIRPSNSQVFHVYCDVISGSPWTLIQHRIDGSQNFNETWENYKYGFGRLDGEFWLGLEKIYSIVKQSNYVLRIELEDWKDNKHYIEYSFYLGNHETNYTLHLVAITGNVPNAIPENKDLVFSTWDHKAKGHFNCPEGYSGGWWWHDECGENNLNGKYNKPRAKSKPERRRGLSWKSQNGRLYSIKSTKMLIHPTDSESFE
notes: also called GST-Angptls-FLAG (Angptl-3); not shown: glutathione S-transferase (GST) tag (pGEX vector); FLAG tag (GST-Angptls-FLAG)

binding result [2]: binds
binding result (LILRA2): no binding
binding result (LILRA1): no binding
binding result (LILRA4): no binding
binding result (LILRB3): binds
binding result (LILRB5): binds
binding result (LILRB1): no binding
B7: GST-Angptl-5 (purified, purchased from Abnova) (ligand)
chain: NCVHHSTDSSVVNIVEDGSNAKDESKSNDTVCKEDCEESCDVKTKITREEKHFMCRNLQNSIVSYTRSTKKLLRNMMDEQQASLDYLSNQVNELMNRVLLLTTEVFRKQLDPFPHRPVQSHGLDCTDIKDTIGSVTKTPSGLYIIHPEGSSYPFEVMCDMDYRGGGWTVIQKRIDGIIDFQRLWCDYLDGFGDLLGEFWLGLKKIFYIVNQKNTSFMLYVALESEDDTLAYASYDNFWLEDETRFFKMHLGRYSGNAGDAFRGLKKEDNQNAMPFSTSDVDNDGCRPACLVNGQSVKSCSHLHNKTGWWFNECGLANLNGIHHFSGKLLATGIQWGTWTKNNSPVKIKSVSMKIRRMYNPYFK
notes: Bought fusion protein; Used radio-iodinated in the liquid-phase assay; also called GST-A5 (Abnova); ^125I-GST-Angptl-5; not shown: glutathione S-transferase (GST) tag at the N-terminus
